Assay: soluble on expression in E. coli; label from the status in PepcDB or PDB records
With “MAHHHHHHMKAGGGLVALLAQTVVAGDVNACCGVLRRVFSETLQEDRRLTALASNAARSVRRRSHHSAGTAPSFATAPAAATKTLSSSASSSSLSSSSALATSSGPDDVVNFARYAQHQRAQAHSFANAAAQAVLRTSFVPPDGVRPLAVAAAGTKGHPTDAEVPQSHRASSAFGAPTDTPIAQRVWKLARSTLSTDSALVKTSSLHVLCHTAQRTGYWEEALHFCEYLPQSPAPLFLSSLLRPDNVNPILQHCATRGWALDVTNAIRVLAEEHGSWSAALVVAQDAEHRLPCGEAYSLGVLVPYLAVSGATAQARQLFESGLAHGALIDPVLVQQLVMQTATLRQWETCLHMLQCLYRTQETAQLLPADADFFCRLMEVSPGWVTSLQLLHMARASDVKPNERTVAILLTQCDQAGAWREAAAVYDMAVKEDFIDSLAVGSTYHTLVRSFSAIQQWQKALEALSWMSKADDASLTAGMMELVTLCEQSGQWEAALSVGSTLMDSGVHLLSTQTSMALLFLCAKGAQWEFAMRLFDAQLHDVRVDPHPLSLCAVMQACVAARQWEAALRVYDAAKASQPRMVVPPLAHRIAVKACVSAGKWNLAIAVLDATRQDGLPLDNYSQRLGLWAAAIQGQWELSLAFFQGIPRRSRTPQDRMMVRHVTRAISPAVDAIALRFLQSH” the “soluble on expression in E. coli” value was “not soluble”. In the case of “KQEVSGQVIYLNRGKSFFAFIKEYLEKETGYKKGVKWNRIALDEVEIITSEMSQARKENIKEAFLDGAVKIIIGTATIREGIDLQRKGTVIYNCYPDWNPTDIRQLEGRIWRQGNE”, the “soluble on expression in E. coli” value is reported as “not soluble”. For “AGHMADGELNVDSLITRLLEVRGCRPGKIVQMTEAEVRGLCIKSREIFLSQPILLELEAPLKICGDIHGQYTDLLRLFEYGGFPPEANYLFLGDYVDRGKQSLETICLLLAYKIKYPENFFLLRGNHECASINRIYGFYDECKRRFNIKLWKTFTDCFNCLPIAAIVDEKIFCCHGGLSPDLQSMEQIRRIMRPTDVPDTGLLCDLLWSDPDKDVQGWGENDRGVSFTFGADVVSKFLNRHDLDLICRAHQVVEDGYEFFAKRQLVTLFSAPNYCGEFDNAGGMMSVDETLMCSFQILKPSEKKAKYQYGGLNSGRPVTPPRTANPPKKR”, the “soluble on expression in E. coli” value was “soluble”. For “MIDMFPMEKGEEQETYELIVRVFHKYVAPVYSENGVARFLGMLSPEGLSEMNNGKNSFVIVARDQSKIIGMISVINDSHIALFFVSPRYQGKGIGKNILDEAIKNCLNRNPELSAVTVSSSPNSKSFYEEAGFEVIGLEHHHHHH”, the “soluble on expression in E. coli” value was “soluble”. In the case of “AQELYKNENAPVHERVMDLISRLTVEEKISLLRATSPGIPRLGIDKYYHGNEALHGVVRPGRFTVFPQAIGLAATWNPELQKRVATVISDEARARWNELDQGREQKEQFSDVLTFWSPTVNMARDPRWGRTPETYGEDPFLSGIMGTAFVNGLQGDDPHYLKIVSTPKHFAANNEEHNRFVCNPQISEKQLREYYFPAFEMCVKEGKAASIMSAYNALNDVPCTLNPWLLQKVLRQDWGFQGYVVSDCGGPALLVNAHKYVKTKEAAATLSIKAGLDLECGDDVYDGPLLNAYKQYMVSDADIDSAAYHVLTARMKLGLFDS”, the “soluble on expression in E. coli” value is reported as “not soluble”. In the case of “MHIAILGCTSQIAKDLIRSIYVYSQHDLILFGRTPQQTQSWLAENGITSRCSVNQYEEYPNIDHDVVINFVGIGDPSKAAAMGGSIFDITLHYDELVLNELKKYPDRRYLFLSSGAAYGSSFLEPADADTPSTININNLLPQEYYSVAKLHAECRHRSLKEYAIVDLRVFNVFSRTQDLEARFFITDIVRSIHSGTELITSSDMIYRDFMHPKDFYQLVERVLNAPPMNISLDCYSRQPVDKTTLLDEMKKTFGLSYRVKESNMSINATGIKPCYYSKNKRAAEFGYLPEYSSLETIIEETNAILGLQKTVLEHHHHHH”, the “soluble on expression in E. coli” value is reported as “soluble”. For “MGSDKIHHHHHHMYSDQTYEVIKNRTLENINLDIYKGEGSFLNNMVSGNNLELSKIYLELSKMHKMAFIQDTYNQFLDKRVNEFGVYRKLGTESNGEVEFIGEKGTVINNGTIISYRDLLFVVIKDVTIGSEEGDNSPVQALEVGKKYNLPTNCEFKLVDNISGVTKITNTRSFEGGTDIETDEELKERFYKIQRNQATSGNKAHYEEWALEVDGVYNVKVYPRWDGPGTVKVLIFGKNNQAVDTETIERCQQHIDEEKPIGPTITVVTPLPIEISISAVMKLEDGYTLDNVKESFLESINTYFRDIRGEIIYTKVMGILINTTGVHDLSNLLINGSTDNITINEDKIPSVTTVNFSEVENQ”, the “soluble on expression in E. coli” value was “not soluble”. In the case of “AIARGPEPGPQPTMEGDVLDTLEALGYKGPLLEEQALTKAAEGGLSSPEFSELCIWLGSQIKSLCNLEESITSAGRDDLESFQLEISGFLKEMACPYSVLISGDIKDRLKKKEDCLKLLLFLSTELQASQILQNKKHKNSQLDKNSEVYQEVQAMFDTLGIPKSTTSDIPHMLNQVESKVKDILSKVQKNHVGKPLLKMDLNSEQAEQLERINDALSCEYECRRRMLMKRLDVTVQSFGWSDRAKVKTDDIARIYQPKRYALSPKTTITMAHLLAAREDLSKIIRTSSGTSREKTACAINKVGVSFSTVENELMISYLMFLQILVYFSFMSW”, the “soluble on expression in E. coli” value is reported as “soluble”. For “MGSDKIHHHHHHVQTPALIIVTGHPATGKTTLSQALATGLRLPLLSKDAFKEVMFDGLGWSDREWSRRVGATAIMMLYHTAATILQSGQSLIMESNFRVDLDTERMQNLHTIAPFTPIQIRCVASGDVLVERILSRIAQGARHPGHCDDRSPADLELVRSRGDIPPLPLGGPLLTVDTTFPEQIDMNAIVQWVRQHLQSGTAFL”, the “soluble on expression in E. coli” value was “not soluble”. For “MSQKRSLVFAIRDFPPGCGTHIDVSSSLNHPAEKAFKHPRTGDVSGENLSFAEAKPEGTCLKRESADQDHIFAAPEHNAKREPAGQDHVVAATTVAYATSSHRQKVEIGNSDCDPTPREKVLEVLSLFKQVYNQLDRDKKARRGGDFLDATSRIDLKTLTVLEKMGKQVNTEKRIGSVPGINIGDVFQYKTELRVVGLHSKPMCGIDYIKLGDDRITTSIVASEGYGYNDTYNSGVMVYTGEGGNVINKQKKTEDQKLVKGNLALATSMRQKSQVRVIRGEERLDRKGKRYVYDGLYMVEEYWVERDVRGKSVYKFKLCRIPGQLPLT”, the “soluble on expression in E. coli” value was “not soluble”. With “MSLGIKAVIFDLDGVIVSTDEYHYRAWKAMADEEGIYFDKRINERLRGVGRMESLEIILEKAKKTYNTKEKIQMTERKNFIYRELLNELTPKHILKGVMNVLETLRAKNIKIAIGSSSKNTSIILEKIKLDKYFDAVADGREIKKSKPNPEVFLLAAKKLKVSPEECLIVEDADAGVEAAIAGGMKVLAVGYASNNIKANYKFKDLSCVDIKEVICKEGHHHHHH” the “soluble on expression in E. coli” value was “soluble”. With “MDVLIIGGGEAGLVAGCRALTMGQKVILVEKNGYLGGATILNGSNVVGTGSDVAAQIFDNNHDTPEMLAQDVARESLETNYPALTDLMVHNIGPAIDFISKFADLHYQKAQTQTPEHSINRQIELPSASSYEFIQKVSKAFAAAGGQIMLDTRVEKLMLDNDKKLRGVIAAQKDQTVNIKARSVVLAAGGHGANQKMRGTESEGIDYYGPMTSTGDAYQFNGDLDLQTHDLGWYKLYPHGVEVEPGVAKLTTYASKQATDMGAIYVNSKGDRIVNESNVYTTFRNAILKQADKVAYLVMDERTWKKVYDLLILHDFTPEEIKSFFENKGKRPVFVKGSLESAAEQAGIVVDELVQTVKNYQGYVQDGHDHDFGRDPKYLHQFEGETFYIIEQRDRFATTLGGYSVDADNLQLVTTKNAPVANYFGAGEIIGGANGHDSMPSMMNTWGISSGYVAGAAASENAQRQATAGAAALEHHHHHH” the “soluble on expression in E. coli” value was “not soluble”. In the case of “MSLLTLAFNPQPRAKTYCSGPILRVSGVWAVKILYIVLDGAADSPTSPRKTLEEASKPNIDSLGSHAVCGMVYTVKPGVAPQSDYATLSLLGYNPDEYYPGRGPLEAFGAGIEMRRGDIALRANFATVDPGTLRIIDRRVGRSLTSREARELASAVDGMELEDGEGTALFRATIGHRGVLVLRHRSKPLSDAISNTDPAYERRGRFSVALEKYEPFIKLSNPLVEDEAAVLAARMLNEFTLKAVEILDSHPVNLAREKRGLLKANAILSRDAGGLPEEKPPSFQERFGLRGASIVEMVVERGISRYIGLDDIRVEIEGRAREEVYREEAARAVEALETHDLVYVHLKGPDEPGHDGSFEGKIRAVEDIDKHFFAPLLDRLSSAGLEPAFVVTSDHATPWDVGAHSGDPVPLMISHQSIQGSIGKFSETVCLRGRLGTIIGGYRIIPKTLSLLAGLEHHHHHH”, the “soluble on expression in E. coli” value is reported as “soluble”.
